{"source": "patent US20110212084A1", "about": "(AstraZeneca / MedImmune, published 2011)", "binders": {"B1": {"name": "Antibody 10 (IgG) (antibody, V domains shown)", "VH": "not shown", "VL": "SYVLTQPPSVSVSPGQTASITCSGDKLGDKYASWYRQRSGQSPVLVIYQDDKRPSGIPERFSGSNSGNTATLTISGTHTMDEADYYCLAWDTRTSGAVFGGGTKLTVL"}, "B2": {"name": "Antibody 10 (scFv) (scFv, V domains shown)", "VH": "not shown", "VL": "B1 VL", "notes": "purified scFv"}, "B3": {"name": "Antibody 33 (scFv) (scFv, V domains shown)", "VH": "EVQLLESGGGLVQPGGSLSLSCAAPGFTFSSYAMSWVRQAPGKGLEWVSAISGGSGGRTYYADSVKGRFTISKDNSKNTLYLQMNSLRAEDTAVYYCARHIAVAGTRGFDYWGRGTLVTVSS", "VL": "B1 VL with K30T, Q41L, V44A", "notes": "purified scFv"}, "B4": {"name": "Antibody 15 (scFv) (scFv, V domains shown)", "VH": "B3 VH with S19R, K73R", "VL": "B1 VL with K30T, K52R", "notes": "purified scFv"}, "B5": {"name": "Antibody 12 (scFv) (scFv, V domains shown)", "VH": "EVQLLESGGGLVQPGGSLRLSCAASGFTFSSYAMSWVRQAPGKGLEWVSAISGSGGRTYYADSVKGRFTISRDNSKNTLYLQMNSLRAEDTAVYYCARHIAVAGTRGFDYWGRGTLVTVSS", "VL": "B1 VL with Y2F, V3M, T5S, K30T", "notes": "purified scFv"}, "B6": {"name": "Antibody 36 (scFv) (scFv, V domains shown)", "VH": "B5 VH", "VL": "B1 VL with Y2F, V3M, T5S, K30T", "notes": "purified scFv"}, "B7": {"name": "Antibody 9 (scFv) (scFv, V domains shown)", "VH": "B3 VH with S19R, P25S, K73R", "VL": "B1 VL with Y2F, T5S, K30T", "notes": "purified scFv"}, "B8": {"name": "Antibody 34 (scFv) (scFv, V domains shown)", "VH": "B3 VH with S19R, F29L, K73R", "VL": "B1 VL with V12A, K30T, S55P, S75R, T106S", "notes": "purified scFv"}, "B9": {"name": "Antibody 8 (scFv) (scFv, V domains shown)", "VH": "B3 VH with S19R, K73R", "VL": "B1 VL with K30T", "notes": "purified scFv"}, "B10": {"name": "Antibody 20 (scFv) (scFv, V domains shown)", "VH": "B5 VH with H99S, I100T, A101Y, V102F, G104S", "VL": "B1 VL", "notes": "purified scFv"}, "B11": {"name": "Antibody 14 (scFv) (scFv, V domains shown)", "VH": "B5 VH with S25P, A33P, R57S", "VL": "B1 VL with Y2F, T5S, K30T", "notes": "purified scFv"}, "B12": {"name": "Antibody 21 (scFv) (scFv, V domains shown)", "VH": "B5 VH with H99L, I100T, A101F, V102P, G104I", "VL": "B1 VL", "notes": "purified scFv"}, "B13": {"name": "Antibody 31 (scFv) (scFv, V domains shown)", "VH": "B5 VH with H99L, I100S, A101Y, V102P, G104I", "VL": "B1 VL", "notes": "purified scFv"}, "B14": {"name": "Antibody 30 (scFv) (scFv, V domains shown)", "VH": "B5 VH with H99L, I100S, A101Y, V102P, G104I", "VL": "B1 VL with K30T", "notes": "purified scFv"}, "B15": {"name": "Antibody 28 (scFv) (scFv, V domains shown)", "VH": "B5 VH with H99L, I100W, A101F, V102P, G104I", "VL": "B1 VL with K30T", "notes": "purified scFv"}, "B16": {"name": "Antibody 29 (scFv) (scFv, V domains shown)", "VH": "B5 VH with H99L, I100T, A101F, V102P, G104I", "VL": "B1 VL with K30T", "notes": "purified scFv"}, "B17": {"name": "Antibody 11 (scFv) (scFv, V domains shown)", "VH": "B5 VH with L86P, T118A", "VL": "B1 VL with T21A, K30T", "notes": "purified scFv"}, "B18": {"name": "Antibody 16 (scFv) (scFv, V domains shown)", "VH": "B3 VH with S19R, K73R", "VL": "B1 VL with K30T, K104E", "notes": "purified scFv"}, "B19": {"name": "Antibody 27 (scFv) (scFv, V domains shown)", "VH": "B5 VH with H99S, I100T, A101Y, V102F, G104S", "VL": "B1 VL with K30T", "notes": "purified scFv"}, "B20": {"name": "Antibody 24 (scFv) (scFv, V domains shown)", "VH": "B3 VH with S19R, K73R, S121P", "VL": "B1 VL with Y2F, K30T", "notes": "purified scFv"}, "B21": {"name": "Antibody 17 (scFv) (scFv, V domains shown)", "VH": "B3 VH with S19R, K73R", "VL": "B1 VL with K30T, N68D", "notes": "purified scFv"}, "B22": {"name": "Antibody 2 (scFv) (scFv, V domains shown)", "VH": "B5 VH", "VL": "B1 VL with K30T, K52R", "notes": "purified scFv"}, "B23": {"name": "Antibody 4 (scFv) (scFv, V domains shown)", "VH": "B5 VH with L116P", "VL": "B1 VL with Y2F, K30T", "notes": "purified scFv"}, "B24": {"name": "Antibody 26 (scFv) (scFv, V domains shown)", "VH": "B5 VH with F27L, S31G, T78M", "VL": "B1 VL with Y2F, K30T, S75G", "notes": "purified scFv"}, "B25": {"name": "Antibody 18 (scFv) (scFv, V domains shown)", "VH": "B3 VH with S19R, P25S, M34V, K73R", "VL": "B1 VL with K30T, N68D, H78R", "notes": "purified scFv"}, "B26": {"name": "Antibody 22 (scFv) (scFv, V domains shown)", "VH": "B5 VH with V64A, S85G", "VL": "B1 VL with K30T, A32T, I57V", "notes": "purified scFv"}, "B27": {"name": "Antibody 3 (scFv) (scFv, V domains shown)", "VH": "B5 VH", "VL": "B1 VL with K30T, N68D", "notes": "purified scFv"}, "B28": {"name": "Antibody 6 (scFv) (scFv, V domains shown)", "VH": "B5 VH with R72K, T115A", "VL": "B1 VL with K30T", "notes": "purified scFv"}, "B29": {"name": "Antibody 19 (scFv) (scFv, V domains shown)", "VH": "B3 VH with S19R, P25S, I51V, K73R", "VL": "B1 VL with Y2F, K30T, G76R", "notes": "purified scFv"}, "B30": {"name": "Antibody 23 (scFv) (scFv, V domains shown)", "VH": "B3 VH with S19R, P25S, G26E, S30G, K73R", "VL": "B1 VL with K30T, T69A", "notes": "purified scFv"}, "B31": {"name": "Antibody 25 (scFv) (scFv, V domains shown)", "VH": "B3 VH with S19R, K73R, V120I", "VL": "B1 VL with Y2F, K30T", "notes": "purified scFv"}, "B32": {"name": "Antibody 5 (scFv) (scFv, V domains shown)", "VH": "B5 VH", "VL": "B1 VL with K30T, K52R, V107A", "notes": "purified scFv"}, "B33": {"name": "Antibody 7 (scFv) (scFv, V domains shown)", "VH": "B5 VH with S54G", "VL": "B1 VL with V12A, K30T", "notes": "purified scFv"}, "B34": {"name": "Antibody 13 (scFv) (scFv, V domains shown)", "VH": "B5 VH with T69A, I70V", "VL": "B1 VL with K30T, K52R", "notes": "purified scFv"}}, "note": "Where a chain is given by its changes, count along the chain named.", "data": [{"target": "T1, human IgEλ (U266 derived) (human, UniProt P01854 1-546)", "experiment": "cell-based or functional assay", "units": {"RBL-ER51 calcium signalling IC50 (nM) Geomean, human IgE 25 ng/ml": "nM"}, "values": [{"binder": "B1", "RBL-ER51 calcium signalling IC50 (nM) Geomean, human IgE 25 ng/ml": 1.5}]}, {"target": "T2, human IgE (source not stated for the assay) (human, UniProt P01854-1 1-428)", "T2 construct": "also called purified human IgE; IgE (Calbiochem or U266-derived)", "T2 sequence (P01854 other isoform, or with tags, fused parts or gaps)": "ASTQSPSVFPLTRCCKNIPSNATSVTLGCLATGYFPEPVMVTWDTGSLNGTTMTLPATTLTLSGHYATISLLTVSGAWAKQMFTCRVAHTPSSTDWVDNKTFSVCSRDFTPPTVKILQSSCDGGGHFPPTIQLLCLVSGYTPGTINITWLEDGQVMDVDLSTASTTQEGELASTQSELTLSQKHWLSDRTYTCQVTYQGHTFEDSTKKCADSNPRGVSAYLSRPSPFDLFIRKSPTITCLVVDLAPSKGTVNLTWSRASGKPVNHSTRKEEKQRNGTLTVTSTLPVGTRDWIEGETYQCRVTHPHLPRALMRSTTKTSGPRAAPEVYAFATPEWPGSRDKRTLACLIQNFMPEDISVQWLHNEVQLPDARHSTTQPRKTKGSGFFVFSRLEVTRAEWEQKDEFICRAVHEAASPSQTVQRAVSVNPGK", "experiment": "SPR, BIAcore 2000; IgE amine-coupled to CM5 chip, IgG as analyte, bivalent analyte model; geomean", "method": "The binding affinity of purified IgG samples of a representative number of clones to human and cynomolgus IgE was determined by surface plasmon resonance using BIAcore 2000 biosensor (BIAcore AB) essentially as described by Karlsson et al 1991; Journal of Immunological Methods 145 (1-2) 229-240. In brief, purified human or cynomolgus IgE was covalently coupled to the surface of a CM5 sensor chip (BIAcore) using standard amine coupling reagents according to the manufacturer's instructions to provide a surface density of 100 RU. IgG samples prepared in HBS-EP buffer (BIAcore (AB), at a range of concentrations, between 250 nM and 15.6 nM were passed over the sensor chip surface. The surface was regenerated using 10 mM Glycine, pH 1.75 between each injection of antibody. The resulting sensorgrams were evaluated using BIA evaluation 3.1 software and fitted to a bivalent analyte model, to provide relative binding data.", "units": {"Kd": "nM"}, "values": [{"binder": "B1", "Kd": 1.3}]}, {"target": "T3, human IgEλ (U266 derived) (human, UniProt P01854 1-546)", "T3 construct": "mature; full-length IgE purified from U266 cells (Ikeyama et al. 1986); labelled with europium cryptate in the HTRF assays; also called human IgE (U266-derived)", "experiment": "HTRF receptor-ligand competition, scFv titrated; Eu-cryptate human IgE (U266) binding to human FcεRI-Fc; geomean", "method": "(§1) Purified scFv were tested in a receptor-ligand binding HTRF® (Homogeneous Time-Resolved Fluorescence) assay format for inhibition of either human IgE (U266-derived [Ikeyama et. al. 1986. Molecular Immunology 23 (2); p159-167]) or cyno IgE (recombinant, see materials and methods) labelled with europium cryptate (CIS bio International 62EUSPEA), binding to human FcεR1-Fc (in house NS0 cell produced). Example scFv potency data is included in Table 5a\nas §1, with “produced).” for “produced). Example scFv potency data is included in Table 5a”", "units": {"IC50": "nM"}, "values": [{"binder": "B2", "IC50": 10}, {"binder": "B3", "IC50": 14}, {"binder": "B4", "IC50": 4}, {"binder": "B5", "IC50": 8}, {"binder": "B6", "IC50": 8}, {"binder": "B7", "IC50": 6}, {"binder": "B8", "IC50": 3}]}, {"target": "T1, human IgEλ (U266 derived)", "experiment": "HTRF receptor-ligand competition, scFv titrated; Eu-cryptate human IgE (U266) binding to human FcεRI-Fc; geomean", "method": "as §1\nas §1, with “produced).” for “produced). Example scFv potency data is included in Table 5a”", "units": {"IC50": "nM"}, "values": [{"binder": "B9", "IC50": 8}, {"binder": "B10", "IC50": 5}, {"binder": "B11", "IC50": 7}, {"binder": "B12", "IC50": 4}, {"binder": "B13", "IC50": 9}, {"binder": "B14", "IC50": 4}, {"binder": "B15", "IC50": 4}, {"binder": "B16", "IC50": 6}, {"binder": "B17", "IC50": 7}, {"binder": "B18", "IC50": 10}, {"binder": "B19", "IC50": 2}, {"binder": "B20", "IC50": 4}, {"binder": "B21", "IC50": 7}, {"binder": "B22", "IC50": 7}, {"binder": "B23", "IC50": 5.4}, {"binder": "B24", "IC50": 8}, {"binder": "B25", "IC50": 6}, {"binder": "B26", "IC50": 7}, {"binder": "B27", "IC50": 5}, {"binder": "B28", "IC50": 8}, {"binder": "B29", "IC50": 9}, {"binder": "B30", "IC50": 7}, {"binder": "B31", "IC50": 6}, {"binder": "B32", "IC50": 6}, {"binder": "B33", "IC50": 8}, {"binder": "B34", "IC50": 9}]}, {"target": "T4, cynomolgus IgE (recombinant chimaeric D12 variable region / cynomolgus IgE constant region) (cynomolgus monkey (constant region))", "T4 construct": "also called cyno IgE; cynomolgus IgE (in house HEK-EBNA derived)", "T4 sequence (heavy, as listed by the source limits assumed, chain 1 of 2)": "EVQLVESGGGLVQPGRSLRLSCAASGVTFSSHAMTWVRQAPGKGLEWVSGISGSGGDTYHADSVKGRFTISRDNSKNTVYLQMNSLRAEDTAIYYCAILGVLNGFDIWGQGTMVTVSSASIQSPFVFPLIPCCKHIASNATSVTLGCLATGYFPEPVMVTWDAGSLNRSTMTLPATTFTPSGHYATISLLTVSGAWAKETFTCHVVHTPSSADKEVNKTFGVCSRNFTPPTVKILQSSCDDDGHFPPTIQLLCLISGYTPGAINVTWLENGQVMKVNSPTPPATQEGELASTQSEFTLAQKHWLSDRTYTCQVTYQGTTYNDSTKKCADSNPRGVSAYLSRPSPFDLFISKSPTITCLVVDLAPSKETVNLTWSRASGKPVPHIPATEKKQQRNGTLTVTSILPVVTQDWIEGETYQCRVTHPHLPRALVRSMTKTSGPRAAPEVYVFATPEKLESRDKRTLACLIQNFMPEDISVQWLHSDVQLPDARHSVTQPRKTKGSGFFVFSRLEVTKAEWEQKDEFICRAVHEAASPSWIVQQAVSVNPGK", "T4 sequence (light, as listed by the source limits assumed, chain 2 of 2)": "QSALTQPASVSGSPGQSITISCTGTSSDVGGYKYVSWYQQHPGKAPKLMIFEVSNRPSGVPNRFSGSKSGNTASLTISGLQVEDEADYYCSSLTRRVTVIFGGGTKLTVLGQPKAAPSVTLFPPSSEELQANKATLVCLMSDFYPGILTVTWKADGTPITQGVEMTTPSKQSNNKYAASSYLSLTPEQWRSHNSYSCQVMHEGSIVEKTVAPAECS", "experiment": "HTRF receptor-ligand competition, scFv titrated; Eu-cryptate cynomolgus IgE binding to human FcεRI-Fc; geomean", "method": "as §1\nas §1, with “produced).” for “produced). Example scFv potency data is included in Table 5a”", "units": {"IC50": "nM"}, "values": [{"binder": "B9", "IC50": 438}, {"binder": "B18", "IC50": 280}, {"binder": "B19", "IC50": 379}, {"binder": "B20", "IC50": 196}, {"binder": "B21", "IC50": 264}, {"binder": "B3", "IC50": 533}, {"binder": "B22", "IC50": 398}, {"binder": "B4", "IC50": 135}, {"binder": "B23", "IC50": 600}, {"binder": "B5", "IC50": 473}, {"binder": "B24", "IC50": 359}, {"binder": "B25", "IC50": 129}, {"binder": "B27", "IC50": 237}, {"binder": "B6", "IC50": 407}, {"binder": "B7", "IC50": 138}, {"binder": "B29", "IC50": 197}, {"binder": "B30", "IC50": 331}, {"binder": "B31", "IC50": 188}, {"binder": "B8", "IC50": 500}, {"binder": "B32", "IC50": 356}, {"binder": "B33", "IC50": 569}]}]}
